Earlier results, collected in paper PMC11727785.
pKd: −log10 of the molar value. Like-named read-outs stand apart in the source and are kept apart here.

What was measured:
[1] = target: IL-18 receptor alpha chain (Homo sapiens) (UniProt Q13478)
[2] = target: IL-18 receptor complex (Homo sapiens) (UniProt Q13478)
IL-18 (Homo sapiens) [3] = target: IL-18 (Homo sapiens) (UniProt Q14116); test: SPR
IL-18 (Homo sapiens) [4] = target: IL-18 (Homo sapiens) (UniProt Q14116)

IL-18 (Homo sapiens), sequence (Q14116 37-193): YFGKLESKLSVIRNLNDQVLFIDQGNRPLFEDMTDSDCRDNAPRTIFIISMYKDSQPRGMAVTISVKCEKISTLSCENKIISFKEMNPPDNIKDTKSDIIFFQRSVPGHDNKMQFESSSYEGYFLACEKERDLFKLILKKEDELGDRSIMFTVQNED
IL-18, sequence (Q14116 37-193): as above
IL-18BP, sequence (O95998 31-194): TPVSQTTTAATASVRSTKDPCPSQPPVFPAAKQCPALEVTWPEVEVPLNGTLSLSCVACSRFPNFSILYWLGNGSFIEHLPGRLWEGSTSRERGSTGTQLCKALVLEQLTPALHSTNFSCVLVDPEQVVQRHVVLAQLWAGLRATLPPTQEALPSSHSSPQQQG
IL-18 receptor alpha chain (Homo sapiens), sequence (Q13478 19-541): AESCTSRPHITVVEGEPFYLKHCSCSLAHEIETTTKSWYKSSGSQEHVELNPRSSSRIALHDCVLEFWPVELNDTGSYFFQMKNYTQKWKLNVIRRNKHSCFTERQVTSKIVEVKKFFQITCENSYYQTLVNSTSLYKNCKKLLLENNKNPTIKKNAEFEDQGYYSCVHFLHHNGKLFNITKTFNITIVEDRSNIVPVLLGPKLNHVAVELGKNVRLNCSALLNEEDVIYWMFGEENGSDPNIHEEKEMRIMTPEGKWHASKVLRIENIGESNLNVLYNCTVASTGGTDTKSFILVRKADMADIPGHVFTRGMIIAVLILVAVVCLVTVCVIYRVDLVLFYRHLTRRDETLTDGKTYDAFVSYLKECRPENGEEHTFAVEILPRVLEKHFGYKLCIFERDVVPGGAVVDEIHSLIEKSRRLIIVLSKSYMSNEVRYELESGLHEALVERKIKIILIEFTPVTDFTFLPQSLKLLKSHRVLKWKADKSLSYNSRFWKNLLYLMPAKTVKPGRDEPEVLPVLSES
IL-18 receptor complex (Homo sapiens), sequence (Q13478 19-541, chain 1 of 2): as the sequence (Q13478 19-541) above
IL-18 receptor complex (Homo sapiens), sequence (O95256 20-599, chain 2 of 2, further chain): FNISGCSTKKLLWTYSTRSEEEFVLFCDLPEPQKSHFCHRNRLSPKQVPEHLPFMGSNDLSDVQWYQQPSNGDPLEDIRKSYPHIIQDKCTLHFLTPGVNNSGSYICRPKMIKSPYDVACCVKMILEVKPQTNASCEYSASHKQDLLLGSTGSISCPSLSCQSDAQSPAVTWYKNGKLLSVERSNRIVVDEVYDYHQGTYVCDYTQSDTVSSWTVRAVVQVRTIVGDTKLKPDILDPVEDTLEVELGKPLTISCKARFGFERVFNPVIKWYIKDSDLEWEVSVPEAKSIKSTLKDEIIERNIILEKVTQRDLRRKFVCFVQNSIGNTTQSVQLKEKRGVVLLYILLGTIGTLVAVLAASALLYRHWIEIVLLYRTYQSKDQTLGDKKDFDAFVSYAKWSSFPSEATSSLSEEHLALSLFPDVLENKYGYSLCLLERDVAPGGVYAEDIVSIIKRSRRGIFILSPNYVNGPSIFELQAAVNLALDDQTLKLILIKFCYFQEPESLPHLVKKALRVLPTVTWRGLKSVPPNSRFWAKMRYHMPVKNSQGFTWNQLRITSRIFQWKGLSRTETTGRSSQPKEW

Substance | pKd [1] | pKd [2] | pKd (IL-18 (Homo sapiens) [3]) | pKd (IL-18 (Homo sapiens) [4])
IL-18 (from UniProt Q14116) | 7.73 | 9.40 | – | –
IL-18BP (from UniProt O95998) | – | – | 9.40 | 10.30
